Reference: patent publication US20120034160A1 (AbbVie / Abbott, published 2012)

T1: Recombinant Human IL-17 (human, UniProt Q16552 20-155, limits assumed)
T1 sequence (looked up): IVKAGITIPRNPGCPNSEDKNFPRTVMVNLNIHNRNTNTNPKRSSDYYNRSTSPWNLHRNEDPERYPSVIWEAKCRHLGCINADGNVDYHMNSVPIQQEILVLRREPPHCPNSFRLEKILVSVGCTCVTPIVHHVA


Experiments:
Recombinant Human IL-17 = target: T1, Recombinant Human IL-17; experiment: cell-based or functional assay
Recombinant Human IL-1β = Recombinant Human IL-1β (human, UniProt P01584 117-269); experiment: cell-based or functional assay

| Binder | N-terminal VD IL-17 Neutralization Assay EC50 (Recombinant Human IL-17) [nM] | C-Terminal VD IL-1β Neutralization Assay EC50 (Recombinant Human IL-1β) [nM] | C-terminal VD IL-17 Neutralization Assay EC50 (Recombinant Human IL-17) [nM] | N-Terminal VD IL-1β Neutralization Assay EC50 (Recombinant Human IL-1β) [nM] |
| --- | --- | --- | --- | --- |
| DVD1608 (bispecific antibody, human IgG1, kappa) heavy: not shown light: EIVLTQSPDFQSVTPKEKVTITCRASQDIGSELHWYQQKPDQPPKLLIKYASHSTSGVPSRFSGSGSGTDFTLTINGLEAEDAGTYYCHQTDSLPYTFGPGTKVDIKRTVAAPSVFIFPPETTVTQSPSSLSASVGDRVTITCITSTDIDVDMNWYQQKPGKPPKLLISQGNTLRPGVPSRFSSSGSGTDFTFTISSLQPEDFATYYCLQSDNLPLTFGQGTKLEIKRTVAAPSVFIFPPSDEQLKSGTASVVCLLNNFYPREAKVQWKVDNALQSGNSQESVTEQDSKDSTYSLSSTLTLSKADYEKHKVYACEVTHQGLSSPVTKSFNRGEC | 0.0082 | 4.25 |  |  |
| DVD1603 (bispecific antibody, human IgG1, kappa) heavy: not shown light: DTQVTQSPSSLSASVGDRVTITCITSTDIDVDMNWYQQKPGKPPKLLISQGNTLRPGVPSRFSSSGSGTDFTFTISSLQPEDFATYYCLQSDNLPLTFGQGTKLEIKRTVAAPSVFIFPPEIVLTQSPDFQSVTPKEKVTITCRASQDIGSELHWYQQKPDQPPKLLIKYASHSTSGVPSRFSGSGSGTDFTLTINGLEAEDAGTYYCHQTDSLPYTFGPGTKVDIKRTVAAPSVFIFPPSDEQLKSGTASVVCLLNNFYPREAKVQWKVDNALQSGNSQESVTEQDSKDSTYSLSSTLTLSKADYEKHKVYACEVTHQGLSSPVTKSFNRGEC |  |  | 0.0407 | 0.0803 |
| DVD1607 (bispecific antibody, human IgG1, kappa) heavy: not shown light: ETTVTQSPSSLSASVGDRVTITCITSTDIDVDMNWYQQKPGKPPKLLISQGNTLRPGVPSRFSSSGSGTDFTFTISSLQPEDFATYYCLQSDNLPLTFGQGTKLEIKRTVAAPSVFIFPPEIVLTQSPDFQSVTPKEKVTITCRASQDIGSELHWYQQKPDQPPKLLIKYASHSTSGVPSRFSGSGSGTDFTLTINGLEAEDAGTYYCHQTDSLPYTFGPGTKVDIKRTVAAPSVFIFPPSDEQLKSGTASVVCLLNNFYPREAKVQWKVDNALQSGNSQESVTEQDSKDSTYSLSSTLTLSKADYEKHKVYACEVTHQGLSSPVTKSFNRGEC |  |  | 0.0031 | 0.455 |
| DVD1599 (bispecific antibody, human IgG1, kappa) heavy: not shown light: DIQMTQSPSSLSASVGDRVTITCRASGNIHNYLTWYQQTPGKAPKLLIYNAKTLADGVPSRFSGSGSGTDYTFTISSLQPEDIATYYCQHFWSIPYTFGQGTKLQITRTVAAPSVFIFPPEIVLTQSPDFQSVTPKEKVTITCRASQDIGSELHWYQQKPDQPPKLLIKYASHSTSGVPSRFSGSGSGTDFTLTINGLEAEDAGTYYCHQTDSLPYTFGPGTKVDIKRTVAAPSVFIFPPSDEQLKSGTASVVCLLNNFYPREAKVQWKVDNALQSGNSQESVTEQDSKDSTYSLSSTLTLSKADYEKHKVYACEVTHQGLSSPVTKSFNRGEC |  |  | 0.0504 | 0.0048 |
| DVD1611 (bispecific antibody, human IgG1, kappa) heavy: not shown light: DIQMTQSPSSLSASVGDRVTITCRASGNIHNYLTWYQQTPGKAPKLLIYNAKTLADGVPSRFSGSGSGTDYTFTISSLQPEDIATYYCQHFWSIPYTFGQGTKLQITRTVAAPSVFIFPPEIVLTQSPDFQSVTPKEKVTITCRASQNIGSELHWYQQKPDQSPKLLIKYASHSISGVPSRFSGSGSGTDFTLTINGLEAEDAATYYCHQSDTLPHTFGQGTKVDIKRTVAAPSVFIFPPSDEQLKSGTASVVCLLNNFYPREAKVQWKVDNALQSGNSQESVTEQDSKDSTYSLSSTLTLSKADYEKHKVYACEVTHQGLSSPVTKSFNRGEC |  |  | 0.3 | 0.0041 |
| DVD1600 (bispecific antibody, human IgG1, kappa) heavy: not shown light: EIVLTQSPDFQSVTPKEKVTITCRASQDIGSELHWYQQKPDQPPKLLIKYASHSTSGVPSRFSGSGSGTDFTLTINGLEAEDAGTYYCHQTDSLPYTFGPGTKVDIKRTVAAPSVFIFPPDIQMTQSPSSLSASVGDRVTITCRASGNIHNYLTWYQQTPGKAPKLLIYNAKTLADGVPSRFSGSGSGTDYTFTISSLQPEDIATYYCQHFWSIPYTFGQGTKLQITRTVAAPSVFIFPPSDEQLKSGTASVVCLLNNFYPREAKVQWKVDNALQSGNSQESVTEQDSKDSTYSLSSTLTLSKADYEKHKVYACEVTHQGLSSPVTKSFNRGEC | 0.0055 | 0.794 |  |  |
| DVD1602 (bispecific antibody, human IgG1, kappa) heavy: not shown light: EIVLTQSPDFQSVTPKEKVTITCRASQDIGSELHWYQQKPDQPPKLLIKYASHSTSGVPSRFSGSGSGTDFTLTINGLEAEDAGTYYCHQTDSLPYTFGPGTKVDIKRTVAAPSVFIFPPDIQMTQSPSSLSASVGDRVTITCRASGNIHNYLTWYQQTPGKAPKLLIYNAKTLADGVPSRFSGSGSGTDYTFTISSLQPEDIATYYCQHFWSIPYTFGQGTKLQITRTVAAPSVFIFPPSDEQLKSGTASVVCLLNNFYPREAKVQWKVDNALQSGNSQESVTEQDSKDSTYSLSSTLTLSKADYEKHKVYACEVTHQGLSSPVTKSFNRGEC | 0.0033 | 0.133 |  |  |

Other lines, results leading:

| N-terminal VD IL-17 Neutralization Assay EC50 (Recombinant Human IL-17) [nM] | C-Terminal VD IL-1β Neutralization Assay EC50 (Recombinant Human IL-1β) [nM] | C-terminal VD IL-17 Neutralization Assay EC50 (Recombinant Human IL-17) [nM] | N-Terminal VD IL-1β Neutralization Assay EC50 (Recombinant Human IL-1β) [nM] | Binder |
| --- | --- | --- | --- | --- |
| 0.0031 | 2.03 |  |  | DVD1604 (bispecific antibody, human IgG1, kappa) heavy: not shown light: EIVLTQSPDFQSVTPKEKVTITCRASQDIGSELHWYQQKPDQPPKLLIKYASHSTSGVPSRFSGSGSGTDFTLTINGLEAEDAGTYYCHQTDSLPYTFGPGTKVDIKRTVAAPSVFIFPPDTQVTQSPSSLSASVGDRVTITCITSTDIDVDMNWYQQKPGKPPKLLISQGNTLRPGVPSRFSSSGSGTDFTFTISSLQPEDFATYYCLQSDNLPLTFGQGTKLEIKRTVAAPSVFIFPPSDEQLKSGTASVVCLLNNFYPREAKVQWKVDNALQSGNSQESVTEQDSKDSTYSLSSTLTLSKADYEKHKVYACEVTHQGLSSPVTKSFNRGEC |
|  |  | 0.0264 | 0.0036 | DVD1601 (bispecific antibody, human IgG1, kappa) heavy: not shown light: DIQMTQSPSSLSASVGDRVTITCRASGNIHNYLTWYQQTPGKAPKLLIYNAKTLADGVPSRFSGSGSGTDYTFTISSLQPEDIATYYCQHFWSIPYTFGQGTKLQITRTVAAPSVFIFPPEIVLTQSPDFQSVTPKEKVTITCRASQDIGSELHWYQQKPDQPPKLLIKYASHSTSGVPSRFSGSGSGTDFTLTINGLEAEDAGTYYCHQTDSLPYTFGPGTKVDIKRTVAAPSVFIFPPSDEQLKSGTASVVCLLNNFYPREAKVQWKVDNALQSGNSQESVTEQDSKDSTYSLSSTLTLSKADYEKHKVYACEVTHQGLSSPVTKSFNRGEC |
|  |  | 0.173 | 0.0038 | DVD1609 (bispecific antibody, human IgG1, kappa) heavy: not shown light: DIQMTQSPSSLSASVGDRVTITCRASGNIHNYLTWYQQTPGKAPKLLIYNAKTLADGVPSRFSGSGSGTDYTFTISSLQPEDIATYYCQHFWSIPYTFGQGTKLQITRTVAAPSVFIFPPEIVLTQSPDFQSVTPKEKVTITCRASQNIGSELHWYQQKPDQSPKLLIKYASHSISGVPSRFSGSGSGTDFTLTINGLEAEDAATYYCHQSDTLPHTFGQGTKVDIKRTVAAPSVFIFPPSDEQLKSGTASVVCLLNNFYPREAKVQWKVDNALQSGNSQESVTEQDSKDSTYSLSSTLTLSKADYEKHKVYACEVTHQGLSSPVTKSFNRGEC |
| 0.0053 | 11.9 |  |  | DVD1598 (bispecific antibody, human IgG1, kappa) heavy: not shown light: DIQMTQSPSSLSASVGDRVTITCRASSGIISYIDWFQQKPGKAPKRLIYATFDLASGVPSRFSGSGSGTDYTLTISSLQPEDFATYYCRQVGSYPETFGQGTKLEIKRTVAAPSVFIFPPETTVTQSPSSLSASVGDRVTITCITSTDIDVDMNWYQQKPGKPPKLLISQGNTLRPGVPSRFSSSGSGTDFTFTISSLQPEDFATYYCLQSDNLPLTFGQGTKLEIKRTVAAPSVFIFPPSDEQLKSGTASVVCLLNNFYPREAKVQWKVDNALQSGNSQESVTEQDSKDSTYSLSSTLTLSKADYEKHKVYACEVTHQGLSSPVTKSFNRGEC |
|  |  | 0.0082 | 0.242 | DVD1605 (bispecific antibody, human IgG1, kappa) heavy: not shown light: DTVVTQSPAFLSVTPGEKVTITCITSTDIDVDMNWYQQKPDQPPKLLISQGNTLRPGVPSRFSSSGSGTDFTFTISSLEAEDAATYYCLQSDNLPLTFGQGTKLEIKRTVAAPSVFIFPPEIVLTQSPDFQSVTPKEKVTITCRASQDIGSELHWYQQKPDQPPKLLIKYASHSTSGVPSRFSGSGSGTDFTLTINGLEAEDAGTYYCHQTDSLPYTFGPGTKVDIKRTVAAPSVFIFPPSDEQLKSGTASVVCLLNNFYPREAKVQWKVDNALQSGNSQESVTEQDSKDSTYSLSSTLTLSKADYEKHKVYACEVTHQGLSSPVTKSFNRGEC |
| 0.0188 | 1.63 |  |  | DVD1606 (bispecific antibody, human IgG1, kappa) heavy: not shown light: EIVLTQSPDFQSVTPKEKVTITCRASQDIGSELHWYQQKPDQPPKLLIKYASHSTSGVPSRFSGSGSGTDFTLTINGLEAEDAGTYYCHQTDSLPYTFGPGTKVDIKRTVAAPSVFIFPPDTVVTQSPAFLSVTPGEKVTITCITSTDIDVDMNWYQQKPDQPPKLLISQGNTLRPGVPSRFSSSGSGTDFTFTISSLEAEDAATYYCLQSDNLPLTFGQGTKLEIKRTVAAPSVFIFPPSDEQLKSGTASVVCLLNNFYPREAKVQWKVDNALQSGNSQESVTEQDSKDSTYSLSSTLTLSKADYEKHKVYACEVTHQGLSSPVTKSFNRGEC |
| 0.0046 | 1 |  |  | DVD1610 (bispecific antibody, human IgG1, kappa) heavy: not shown light: EIVLTQSPDFQSVTPKEKVTITCRASQNIGSELHWYQQKPDQSPKLLIKYASHSISGVPSRFSGSGSGTDFTLTINGLEAEDAATYYCHQSDTLPHTFGQGTKVDIKRTVAAPSVFIFPPDIQMTQSPSSLSASVGDRVTITCRASGNIHNYLTWYQQTPGKAPKLLIYNAKTLADGVPSRFSGSGSGTDYTFTISSLQPEDIATYYCQHFWSIPYTFGQGTKLQITRTVAAPSVFIFPPSDEQLKSGTASVVCLLNNFYPREAKVQWKVDNALQSGNSQESVTEQDSKDSTYSLSSTLTLSKADYEKHKVYACEVTHQGLSSPVTKSFNRGEC |
